The term EC50 (read off the curve) denotes the midpoint of the concentration-response curve. In general, Kd refers to the equilibrium constant for the complex coming apart. What is called koff is the rate constant with which the complex falls apart.

Substitutions are numbered along the chain they refer to.

Experiment [1] addresses T1, human platelet glycoprotein I(b)α (GPIbα) on human platelets (human, UniProt P07359 17-652).
T1 construct: whole, on cells; also called human GPIbα
The experiment in a line: flow cytometry on washed platelets, 2.5-5 µg/mL, FITC anti-human-Fab detection. As for the experimental part:
(§1) Specificity. Human and mouse platelet-rich plasma (PRP) was prepared by centrifugation at 300 g for 7 min, and was washed by transferring 200 µL PRP into 10 mL PBS followed with 800 g centrifugation for 10 min. The supernatant was then removed and platelets were re-suspended in 200 µL PBS. Washed platelets (10 µL) were incubated with the different antibodies (2.5-5 µg/mL) in a 200 µL system at room temperature for 30 min, and detected by FITC labeled anti-human-Fab antibody. These eight selected humanized Fabs H001-H008, the scFv and the chimeric protein all bound to both human and wild-type mouse platelets, but not GPIbα deficient mouse platelets, indicating the specificity of the humanized Fabs to platelet GPIbα (FIGS. 4 and 19).
In general terms: Flow cytometry measures light scatter and fluorescence of single cells or particles in a stream.

Experiment [2] has as its target T2, mouse platelet glycoprotein I(b)α (GPIbα) on wild-type mouse platelets (mouse, UniProt O35930 17-734).
T2 construct: whole, on cells; also called mouse GPIbα
T2 sequence (looked up): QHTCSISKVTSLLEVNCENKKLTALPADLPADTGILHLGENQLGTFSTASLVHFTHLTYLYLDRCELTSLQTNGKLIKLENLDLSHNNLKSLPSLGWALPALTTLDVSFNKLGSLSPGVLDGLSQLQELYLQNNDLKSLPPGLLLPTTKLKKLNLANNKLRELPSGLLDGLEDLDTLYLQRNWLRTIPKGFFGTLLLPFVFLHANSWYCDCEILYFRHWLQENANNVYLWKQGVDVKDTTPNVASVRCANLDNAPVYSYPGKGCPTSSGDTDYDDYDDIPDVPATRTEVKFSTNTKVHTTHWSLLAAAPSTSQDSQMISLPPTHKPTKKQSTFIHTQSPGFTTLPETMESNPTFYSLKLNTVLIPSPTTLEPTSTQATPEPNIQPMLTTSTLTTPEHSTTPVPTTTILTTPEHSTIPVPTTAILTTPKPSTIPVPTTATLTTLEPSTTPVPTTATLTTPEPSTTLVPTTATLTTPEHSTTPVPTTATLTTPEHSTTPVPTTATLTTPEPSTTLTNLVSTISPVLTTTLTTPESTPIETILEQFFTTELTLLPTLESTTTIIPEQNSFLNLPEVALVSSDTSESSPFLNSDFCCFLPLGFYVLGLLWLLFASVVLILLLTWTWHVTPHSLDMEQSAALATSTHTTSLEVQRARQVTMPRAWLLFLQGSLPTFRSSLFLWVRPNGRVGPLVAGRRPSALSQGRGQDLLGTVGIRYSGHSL
The experiment in a line: flow cytometry, washed wild-type mouse platelets, Fab 5 µg/mL, FITC anti-human-Fab detection. As for the experimental part:
as §1

In experiment [3] the target is T1, human platelet glycoprotein I(b)α …. The experiment in a line: flow cytometry, human platelets from PRP, FITC anti-human kappa chain detection. On the procedure: (§2) Platelets (2×10^5) from mouse, dog, human, rat and rabbit PRP were transferred into 200 µL PBS containing a serial concentration of the Fabs H001 or H002 at 50, 16.7, 5.6, 1.8, 0.6, 0.2 nM (for mouse and dog), at 200, 67, 22, 7.4, 2.5, 0.8, 0.3, 0.1 nM (for human and rat) and at 500, 100, 20, 4, 0.8 nM (for rabbit). After a 30 min incubation, a detection antibody (FITC-labeled anti-human Kappa chain, 1:200) was added and incubated in darkness for 15 min. Flow cytometry was performed using the BD LSR Fortessa™ X-20. H001 and H002 also bound to rat, dog and rabbit platelets (FIG. 5).

In experiment [4] the target is T3, recombinant hexa-histidine tagged GPIbα.
T3 construct: Held on a Ni-NTA SPR sensor by its hexa-histidine tag; also called recombinant GPIbα; immobilized GPIbα
T3 sequence (P07359 17-652): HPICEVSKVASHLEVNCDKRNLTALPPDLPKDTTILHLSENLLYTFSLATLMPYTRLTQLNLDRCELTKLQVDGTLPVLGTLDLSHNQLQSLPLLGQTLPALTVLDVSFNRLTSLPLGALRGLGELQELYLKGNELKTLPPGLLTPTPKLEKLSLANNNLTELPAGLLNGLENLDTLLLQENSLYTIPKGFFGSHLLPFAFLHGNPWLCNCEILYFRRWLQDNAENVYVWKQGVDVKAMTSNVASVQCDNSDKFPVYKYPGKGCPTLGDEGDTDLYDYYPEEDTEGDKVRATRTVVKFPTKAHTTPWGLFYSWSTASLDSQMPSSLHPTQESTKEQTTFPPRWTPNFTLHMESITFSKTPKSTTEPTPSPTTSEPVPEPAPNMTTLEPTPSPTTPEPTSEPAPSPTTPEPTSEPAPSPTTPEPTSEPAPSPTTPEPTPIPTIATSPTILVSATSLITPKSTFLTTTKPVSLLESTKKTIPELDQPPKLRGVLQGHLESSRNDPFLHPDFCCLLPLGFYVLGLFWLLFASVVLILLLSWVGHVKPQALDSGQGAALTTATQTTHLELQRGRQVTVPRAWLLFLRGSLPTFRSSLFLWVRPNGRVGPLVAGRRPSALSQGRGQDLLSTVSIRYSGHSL
Put plainly: SPR, His-tagged GPIbα held on Ni-NTA sensor, kinetics binding model. As for the experimental part:
(§3) The biosensors were rinsed with copious amounts of anhydrous ethanol followed by 16 hour incubation in a solution of 1 mM mercaptopropionic acid in dimethylformamide. Following the incubation, SPR biosensors were rinsed with copious amounts of dimethylformamide followed by anhydrous ethanol and finally ddH₂O. The biosensors were then incubated in 40 mM 1-Ethyl-3-(3-dimethylaminopropyl) carbodiimide and 20 mM N-Hydroxysuccinimide dissolved in ddH₂O for 1 hour. Sensors were then rinsed with copious amounts of ddH₂O and then incubated with 100 mM Nα,Nα-Bis(carboxymethyl)-L-lysine hydrate for 4 hour. Following the incubation, the biosensing surfaces were rinsed with ddH2O. The final step before SPR experiments was to expose the functionalized biosensing surfaces with 100 mM NiCl₂ for 1 hour.
(§4) The SPR experiments were performed on a Biosensing Instrument 4000 SPR. The functionalized biosensors were loaded onto the instrument and the biosensor was equilibrated with running buffer (10 mM tris(hydroxymethyl) aminomethane, 140 mM NaCl, 20 mM Imidazole pH=7.4) at a flow rate of 40 μL/min. For binding measurements 25 μL of 500 nM hexa-histidine tagged GPIbα was injected over the biosensing surface immobilizing the GPIbα to the SPR sensor surface. […] The resulting data was analyzed using the instrument included SPR analysis software. […]
A general note: In SPR one partner is held on a chip, and binding of the other changes the refractive index at the surface.

Experiment [5] shares this target. Put plainly: SPR steady-state response against H001 concentration, His-tagged GPIbα immobilised. As for the experimental part: as §3, §4
The target in experiment [6] is T4, rat platelet glycoprotein I(b)α (GPIbα) on rat platelets (rat).
T4 construct: whole, on cells; also called rat GPIbα
Put plainly: flow cytometry, rat platelets from PRP, FITC anti-human kappa chain detection. As for the experimental part: as §2

Experiment [7] deals with T3, recombinant hexa-histidine tagged GPIbα. The experiment in a line: SPR, size of shifts against concentration, one site binding model. On the procedure: The SPR experiments were performed on a Biosensing Instrument 4000 SPR. The functionalized biosensors were loaded onto the instrument and the biosensor was equilibrated with running buffer (10 mM tris(hydroxymethyl) aminomethane, 140 mM NaCl, 20 mM Imidazole pH=7.4) at a flow rate of 40 μL/min. For binding measurements 25 μL of 500 nM hexa-histidine tagged GPIbα was injected over the biosensing surface immobilizing the GPIbα to the SPR sensor surface. The baseline was allowed to equilibrate followed by injection of 25 μL of the desired concentration of ligand (either Fab H001 or control). Biosensing surfaces were regenerated between ligand injections by injection of 100 μL of 500 mM imidazole in running buffer, followed by 100 μL of 100 mM NiCl_2. The resulting data was analyzed using the instrument included SPR analysis software.
GPIbα immobilized SPR biosensors were exposed to 500, 100, 50 and 10 nM of Fab H001 antibody and 100 nM control antibody (PSI E1, an antibody against GPIIbIIIa). […] In contrast the Fab H001 antibody clearly bound GPIbα producing clear SPR shifts with only partial dissociation after the end of the injection (FIG. 7A).

Experiment [8] addresses T5, dog platelet glycoprotein I(b)α (GPIbα) on dog platelets (dog, UniProt Q28256 17-677).
T5 construct: whole, on cells; also called dog GPIbα
T5 sequence (looked up): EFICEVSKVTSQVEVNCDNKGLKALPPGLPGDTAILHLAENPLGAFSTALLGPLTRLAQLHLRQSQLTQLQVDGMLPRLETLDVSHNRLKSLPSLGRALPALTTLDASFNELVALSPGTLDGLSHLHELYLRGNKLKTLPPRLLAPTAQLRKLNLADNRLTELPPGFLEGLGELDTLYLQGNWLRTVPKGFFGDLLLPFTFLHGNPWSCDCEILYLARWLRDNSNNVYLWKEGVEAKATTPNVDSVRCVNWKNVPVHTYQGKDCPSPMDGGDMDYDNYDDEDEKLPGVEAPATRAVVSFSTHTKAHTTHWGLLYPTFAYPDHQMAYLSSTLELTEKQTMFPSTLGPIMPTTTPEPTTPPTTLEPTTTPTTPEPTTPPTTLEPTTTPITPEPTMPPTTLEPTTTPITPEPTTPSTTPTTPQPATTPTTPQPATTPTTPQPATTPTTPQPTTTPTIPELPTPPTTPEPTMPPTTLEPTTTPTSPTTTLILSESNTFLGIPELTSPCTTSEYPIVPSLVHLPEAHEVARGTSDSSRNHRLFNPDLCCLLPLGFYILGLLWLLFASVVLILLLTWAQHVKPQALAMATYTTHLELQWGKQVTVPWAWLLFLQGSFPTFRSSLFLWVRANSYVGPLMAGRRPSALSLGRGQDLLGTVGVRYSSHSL
Put plainly: flow cytometry, dog platelets from PRP, FITC anti-human kappa chain detection. As for the experimental part: as §2

Experiment [9] addresses T2, mouse platelet glycoprotein I(b)α …. The experiment in a line: flow cytometry, mouse platelets from PRP, FITC anti-human kappa chain detection. On the procedure: as §2

T1 sequence (P07359 17-652): as the sequence (P07359 17-652) above

B1: humanized Fab H004 (Fab, V domains shown)
VH: EVQLVESGGGLVQPGGSLRLSCAASGFTFSSFAMSWVRQAPGKGLEWVSSITSAGTPYYPDSVLGRFTISRDNSKNTLYLQMNSLRAEDTAVYYCAKSRGYEDYFDYWGQGTLVTVSS
VL: DIQMTQSPSSLSASVGDRVTITCKSSQSLLNSRNQKNYLAWYQQKPGKAPKLLIYFTSTRESGVPSRFSGSGSGTDFTLTISSLQPEDFATYYCQQHYSSPWTFGQGTKVEIKR
notes: Fab with human IgG1 CH1 and human kappa constant region; also called VH3 + VL2
On to B1, for which the binding result in [1] and in experiment [2] was “binds” throughout.

B2: humanized Fab H005 (Fab, V domains shown)
VH: B1 VH
VL: DIVMTQSPLSLPVTPGEPASISCKSSQSLLNSRNQKNYLAWYLQKPGQSPQLLIYFTSTRESGVPDRFSGSGSGTDFTLKISRVEAEDVGVYYCQQHYSSPWTFGQGTKVEIKR
notes: Fab with human IgG1 CH1 and human kappa constant region; also called VH3 + VL3
On to B2, for which the binding result in experiment [1] and in experiment [2] was “binds” in each case.

B3: humanized Fab H003 (Fab, V domains shown)
VH: B1 VH with Q13K, S74A, T77S, K97R, L113T, S118R
VL: DIVMTQSPDSLAVSLGERATINCKSSQSLLNSRNQKNYLAWYQQKPGQPPKLLIYFTSTRESGVPDRFSGSGSGTDFTLTISSLQAEDVAVYYCQQHYSSPWTFGGGTKLEIKR
notes: Fab with human IgG1 CH1 and human kappa constant region; also called VH2 + VL1
Consider B3, for which the binding result in [1] and in experiment [2] was “binds” throughout.

B4: humanized Fab H008 (Fab, V domains shown)
VH: B1 VH with E1Q, L11V, G16R, S49A, K97R
VL: B2 VL
notes: Fab with human IgG1 CH1 and human kappa constant region; also called VH4 + VL3
As to B4, the binding result in experiment [1] and in experiment [2] was “binds” in each case.

B5: humanized Fab H001 (Fab, V domains shown)
VH: B1 VH with E1Q, Q13K, V37I, S74A, T77S, K97R
VL: B1 VL
notes: Fab with human IgG1 CH1 and human kappa constant region; also called Fab H001 antibody; VH1 + VL2
In the case of B5, the binding result in experiment [2] was “binds”. The “EC50 (read off the curve)” value in [3] is approximately 10 nM; in [5], approximately 80 nM; in [6] it was approximately 3 nM; in experiment [8] it was approximately 3 nM. For the same molecule, the values for the Kd in [4] and in [7] were 4.4 nM and 8 nM, respectively. In addition, the koff in experiment [4] stood at 0.11 s⁻¹.

B6: humanized Fab H002 (Fab, V domains shown)
VH: B1 VH with E1Q, Q13K, V37I, S74A, T77S, K97R
VL: B2 VL
notes: Fab with human IgG1 CH1 and human kappa constant region; also called Fab H002 antibody; VH1 + VL3
In the case of B6, the binding result in experiment [9] and in experiment [3] was “binds” throughout. Also, the “EC50 (read off the curve)” value in experiment [6] was approximately 3 nM; in [8] it was approximately 2 nM.

B7: humanized Fab H007 (Fab, V domains shown)
VH: B1 VH with E1Q, L11V, G16R, S49A, K97R
VL: B1 VL
notes: Fab with human IgG1 CH1 and human kappa constant region; also called VH4 + VL2
In the case of B7, the binding result in [1] and in [2] was “binds” throughout.

B8: humanized Fab H006 (Fab, V domains shown)
VH: B1 VH with E1Q, L11V, G16R, S49A, K97R
VL: B3 VL
notes: Fab with human IgG1 CH1 and human kappa constant region; also called VH4 + VL1
Regarding B8, the binding result in experiment [1] and in [2] was “binds” each time.

(Values after US12617863 (CCOA THERAPEUTICS, dated 2026).)
